From paper doi:10.1101/2020.07.24.219956 come the findings set out here.

Assay [1] addresses Human neutrophil-derived myeloperoxidase (human) (UniProt P05164). Put plainly: native MS.
Assay [2] has the same target. Put plainly: mass photometry.

Take “Human neutrophil-derived myeloperoxidase (from UniProt P05164 279-745; P05164 279-745) (enzyme)”: the stoichiometry N in assay [1] is 2. In assay [2], this substance yielded a Kd of 0.05 nM, a percent diprotomer (ααββ) of 93%, a percent monoprotomer (αβ) of 7% and a stoichiometry N of 2.
